Measurements published in patent US20200138866A1 (XYPHOS BIOSCIENCES, published 2020).

Molecular target: T1, Fc-NKG2D.Y152A (human)
T1 construct: also called NKG2D.YA; Fc-NKG2D.YA
Assay: ELISA and Octet

T1 sequence (chain, as listed by the source Y152A Y152A limits assumed): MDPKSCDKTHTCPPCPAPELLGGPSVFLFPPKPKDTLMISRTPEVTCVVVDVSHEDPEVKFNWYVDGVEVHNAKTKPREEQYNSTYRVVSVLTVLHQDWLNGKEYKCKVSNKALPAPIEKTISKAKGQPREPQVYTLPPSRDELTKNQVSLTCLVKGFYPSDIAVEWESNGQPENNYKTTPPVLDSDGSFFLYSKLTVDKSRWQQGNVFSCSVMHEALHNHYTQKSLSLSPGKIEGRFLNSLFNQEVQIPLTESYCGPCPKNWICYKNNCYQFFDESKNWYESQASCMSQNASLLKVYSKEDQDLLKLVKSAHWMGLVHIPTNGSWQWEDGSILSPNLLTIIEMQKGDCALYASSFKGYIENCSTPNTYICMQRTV

B1: rituximab-ULBP2.S3 MicAbody (bispecific antibody, human IgG1, kappa)
heavy: not shown
light: QIVLSQSPAILSASPGEKVTMTCRASSSVSYIHWFQQKPGSSPKPWIYATSNLASGVPVRFSGSGSGTSYSLTISRVEAEDAATYYCQQWTSNPPTFGGGTKLEIKRTVAAPSVFIFPPSDEQLKSGTASVVCLLNNFYPREAKVQWKVDNALQSGNSQESVTEQDSKDSTYSLSSTLTLSKADYEKHKVYACEVTHQGLSSPVTKSFNRGECAPTSSSGGGGSEPHSLSYDITVIPKFRPGPRWCAVQGQVDEKTFLHYDCGNKTVTPVSPLGKKLNVTTAWKAQNPVLREVVDILTEQLWDIQLENYTPKEPLTLQARMSCEQKAEGHSSGSWQFSFDGQIFLLFDSEKRMWTTVHPGARKMKEKWENDKVVATKLYLWSMGDCIGWLEDFLMGMDSTLEPS
notes: also called ULPB2.S3; U2S3 MicAbody
Does B1 bind?
Result: binds
